B1: Smad2-W422A: W422A mutant of full-length Smad2; specific PI(4,5)P2 binding-compromised (protein)
chain: MSSILPFTPPVVKRLLGWKKSAGGSGGAGGGEQNGQEEKWCEKAVKSLVKKLKKTGRLDELEKAITTQNCNTKCVTIPSTCSEIWGLSTANTVDQWDTTGLYSFSEQTRSLDGRLQVSHRKGLPHVIYCRLWRWPDLHSHHELKAIENCEYAFNLKKDEVCVNPYHYQRVETPVLPPVLVPRHTEILTELPPLDDYTHSIPENTNFPAGIEPQSNYIPETPPPGYISEDGETSDQQLNQSMDTGSPAELSPTTLSPVNHSLDLQPVTYSEPAFWCSIAYYELNQRVGETFHASQPSLTVDGFTDPSNSERFCLGLLSNVNRNATVEMTRRHIGRGVRLYYIGGEVFAECLSDSAIFVQSPNCNQRYGWHPATVCKIPPGCNLKIFNNQEFAALLAQSVNQGFEAVYQLTRMCTIRMSFVKGAGAEYRRQTVTSTPCWIELHLNGPLQWLDKVLTQMGSPSVRCSSMS
modifications: left off: His6, N-terminal, state not stated
B2: Smad2- R427A/R428A: double mutant of full-length Smad2; PI(4,5)P2 and TβRI binding-compromised (protein)
chain: B1 chain with A422W, R427A, R428A
modifications: left off: His6, N-terminal, state not stated
B3: Smad2-K420A: K420A mutant of full-length Smad2; predominantly TβRI binding-compromised (protein)
chain: B1 chain with K420A, A422W
modifications: left off: His6, N-terminal, state not stated
B4: Smad2-E425K: charge-reversal mutant of full-length Smad2; PI(4,5)P2 and TβRI binding-enhanced (protein)
chain: B1 chain with A422W, E425K
modifications: left off: His6, N-terminal, state not stated
B5: Smad2-Y426A: Y426A mutant of full-length Smad2; specific PI(4,5)P2 binding-compromised (protein)
chain: B1 chain with A422W, Y426A
modifications: left off: His6, N-terminal, state not stated
B6: EGFP-Smad2 WT: mouse EGFP-Smad2 wild type transfected into HeLa cells (protein, UniProt Q62432 2-467, looked up)
Mothers against …: SSILPFTPPVVKRLLGWKKSAGGSGGAGGGEQNGQEEKWCEKAVKSLVKKLKKTGRLDELEKAITTQNCNTKCVTIPSTCSEIWGLSTANTVDQWDTTGLYSFSEQTRSLDGRLQVSHRKGLPHVIYCRLWRWPDLHSHHELKAIENCEYAFNLKKDEVCVNPYHYQRVETPVLPPVLVPRHTEILTELPPLDDYTHSIPENTNFPAGIEPQSNYIPETPPPGYISEDGETSDQQLNQSMDTGSPAELSPTTLSPVNHSLDLQPVTYSEPAFWCSIAYYELNQRVGETFHASQPSLTVDGFTDPSNSERFCLGLLSNVNRNATVEMTRRHIGRGVRLYYIGGEVFAECLSDSAIFVQSPNCNQRYGWHPATVCKIPPGCNLKIFNNQEFAALLAQSVNQGFEAVYQLTRMCTIRMSFVKGWGAEYRRQTVTSTPCWIELHLNGPLQWLDKVLTQMGSPSVRCSSMS
modifications: EGFP fusion
notes: mouse EGFP-Smad2 wild type transfected into HeLa cells

Where a chain is given by its changes, count along the chain named. In names and notes the source's numbering stands.

For one experiment, the system named is Smad2 transcriptional activity. The experiment can be described thus: Dual luciferase reporter assay for Smad2 transcriptional activity. It is filed as cell-based. As to conditions: Smad2-suppressed HeLa cells, luciferase, 10 ng/ml TGF-β for 48 h. The protocol:
(§1) Two separate gels were used to accommodate all mutants. An empty vector transfection (vehicle) was used for a negative control for each gel. Glyceraldehyde 3-phosphate dehydrogenase (GAPDH) was used as a gel loading control. Data in A and B are quantified in Fig. S3A. C, TGF-β stimulated (10 ng/ml for 1 h) nuclear translocation of mouse EGFP-WT, -K420A, -W422A, -E425K, -Y426A, and -R427A/R428A transfected into HeLa cells whose endogenous Smad2 was suppressed by siRNA. For Smad2-WT, the effect of PI(4,5)P2 depletion was measured. Arrows indicate nuclear accumulation of EGFP-WT and EGFP-E425K. Scale bars indicate 10 μm. D, quantification of (C). (Inuc/Icyto) was calculated from total nuclear and cytosolic fluorescence intensity values. Blank and black bars indicate values before and after TGF-β stimulation. Error bars indicate S.D. values from >3 measurements (n = 10). E, Smad2 transcriptional activity measured by the luciferase assay. Blank and black bars indicate values before and after TGF-β stimulation. Error bars indicate S.D. values from >3 measurements (n = 10).
HeLa cells were plated on 6-well plates at the density of ∼1.5 × 10^5 and treated with siRNA as described above. The reporter gene containing three TGF-β/activin response element (ARE) coupled with the luciferase gene (pGL2 3ARE-Lux: Addgene) was used for enhanced activity ([55]). On translocation into the nucleus, receptor-activated Smad2 associates with the DNA-binding protein FAST1 to form a transcriptional complex on the ARE of the Mix.2 promoter. After 24 h, the cell media were replaced with fresh media and cells were cotransfected with 375 ng pGL2 3ARE-Lux experimental vector, 37.5 ng pGL4.73[hRluc/SV40] internal control vector (Promega), 337.5 ng FAST1, and 750 ng of pcDNA 3.1 plasmid harboring Smad2 WT or mutant using the jetPRIME transfection system (Polyplus transfection) according to the manufacturer's protocols. After 24 h of transfection, cells were placed in fresh media and stimulated with 10 ng/ml TGF-β for 48 h. Then the cells were washed with phosphate buffer saline, and the dual luciferase reporter assay was performed according to the manufacturer's protocols (Promega). All 3ARE-Luc activity values were normalized using the pGL4.73[hRluc/SV40] values as a reference.
(Reporter assays use an easily measured gene product as a stand-in for the process of interest.)
Regarding B1, the “Smad2 transcriptional activity after TGF-β stimulation” value is listed as “much reduced activity even after TGF-β stimulation”.
For B2, the “Smad2 transcriptional activity after TGF-β stimulation” value was “much reduced activity even after TGF-β stimulation”.
Still for that read-out and setting: to B3 belongs “much reduced activity even after TGF-β stimulation”.
On the same count and under the same terms, to B4 belongs “higher transcriptional activity than exogeneous Smad2 WT”.
On the same count and under the same terms, the entry for B5 is “much reduced activity even after TGF-β stimulation”.

A further experiment concerns TβRI. The experiment can be described thus: Dual color single-molecule tracking, TβRI and EGFP-Smad2. It is filed as cell-based. As to conditions: HeLa cells with endogenous Smad2 suppressed, 10 ng/ml TGF-β. Here is the method: Figure 4 Quantitative imaging analyses of spatiotemporal dynamics of Smad2.A, TIRF images of mouse EGFP-Smad2-WT transfected into HeLa cells whose endogenous Smad2 is suppressed by siRNA. Images were taken before and 5 min after TGF-β stimulation (10 ng/ml) with and without PI(4,5)P2 depletion. A pseudo-coloring scheme was used with orange and blue representing the highest and the lowest intensity, respectively. B, kinetics of TGF-β stimulated (10 ng/ml) PM localization of EGFP-Smad2-WT (blue), -K420A (green), and -W422A (orange) transfected into HeLa cells the endogenous Smad2 of which was suppressed by siRNA. For EGFP-Smad2-WT, the effect of PI(4,5)P2 depletion (black) and TβRI inhibition by SB-431542 (10 μM for 36 h) (red) were measured. Data points indicate average ±S.D. (n = 10 cells). C, spatially resolved PM PI(4,5)P2 concentration ([PI(4,5)P2]) profiles calculated from two-channel cross-sectional images of HeLa cells (before and 5 min after 10 ng/ml TGF-β stimulation and after PI(4,5)P2 depletion). Each cell is a representative of more than ten cells analyzed. Spatially averaged [PI(4,5)P2] values for each cell type are shown. The z-axis scale indicates [PI(4,5)P2] in mol%. A pseudo-coloring scheme with red and blue representing the highest (1.5 mol%) and the lowest (0 mol%) concentration, respectively, is used to illustrate the spatial [PI(4,5)P2] heterogeneity. Scale bars indicate 10 μm. D, dual color single-molecule tracking of EGFP-PLCδ-PH and SNAP-TMR-labeled TβRI at the PM of HeLa cells. Time courses of the half-life of colocalization for SNAP-TMR-labeled TβRI and EGFP-PLCδ-PH after 10 ng/ml TGF-β stimulation were determined with (orange) and without (blue) PI(4,5)P2 depletion. Data points indicate average ±S.D. (n = 10 cells). E, time courses of the half-life of colocalization for SNAP-TMR-labeled TβRI and EGFP-Smad2 determined by dual color single-molecule tracking analysis. Colocalization of TβRI with EGFP-Smad2-WT (blue), -K420A (green), -W422A (orange), E425K (red), Y426A (cyan), and -R427A/R428A (black) transfected into HeLa cells whose endogenous Smad2 was suppressed by siRNA is shown. For EGFP-Smad2-WT, the effect of PI(4,5)P2 depletion (purple) was measured. Data points indicate average ±S.D. (n = 10 cells). […] TEXT PRINTED IN THE PICTURE: (C) PI(4,5)P2: [PI(4,5)P2] = 1.05 ± 0.20 mol% (HeLa unstimulated); [PI(4,5)P2] = 1.00 ± 0.40 mol% (HeLa 5 min after TGFβ); [PI(4,5)P2] = 0.16 ± 0.08 mol% (HeLa After PI(4,5)P2 depletion) DOUBTS OF THE COPYIST ABOUT THIS PICTURE: Panel C: the printed values are measured membrane concentrations of PI(4,5)P2 in HeLa cells under three conditions, not an activity or property of a compound; it is uncertain whether they count as a result for a substance
Single-molecule imaging was performed using a custom-built total internal reflection fluorescence microscope as described previously. HeLa cells were plated on the 8-well chambered coverglass (Lab-Tek, Thermo Fisher Scientific) at the density of 1 × 10^5 for 24 h, EGFP-Smad2 or mutants and SNAP-tagged TβRI were cotransfected into cells using the jetPRIME system (Polyplus-transfection) according to the manufacturer's protocols. The transfected HeLa cells were serum starved for 16 h and subsequently labeled with SNAP-Cell tetramethylrhodamine (TMR)-Star (New England Biolabs). Labeled cells were washed to remove the free dye, stimulated with 10 ng/ml TGF-β, the two protein molecules were simultaneously tracked and analyzed as described. The images were spatially corrected following the algorithm described previously ([39]). All particle tracking, data analysis, and image processing were carried out with in-house programs written in MATLAB. Colocalization analysis of two molecules was performed with a fixed threshold criterion (i.e., <400 nm) for colocalization ([39]). The same size of PM surface was analyzed for each data. […]
Regarding B1, the “dynamic colocalization / dwell time with TβRI after TGF-β stimulation” value is on record as “much reduced TGFβ-stimulated dynamic colocalization with TβRI”.
Still for that read-out and setting: to B2 belongs “low response to TGFβ stimulation”; to B3, “little response to TGFβ stimulation”; to B4, “stronger interaction with TβRI in terms of both amplitude and duration”.
Same read-out and setting: to B5 belongs “much reduced TGFβ-stimulated dynamic colocalization with TβRI”.

Staying with this experiment, now noted: HeLa cells with endogenous Smad2 suppressed, 10 ng/ml TGF-β, n = 10 cells.
Take B6: the “time of peak colocalization with TMR-SNAP-TβRI after TGF-β stimulation” value was 5 min.

The test system of the next experiment is HeLa cells. The experiment can be described thus: Nuclear translocation of EGFP-Smad2. The class given is cell-based. As to conditions: HeLa cells with endogenous Smad2 suppressed, 10 ng/ml TGF-β for 1 h. The protocol:
as §1
The ratio of nuclear to cytoplasmic protein was calculated from the fluorescence intensity of nucleus (Inuc) and the cytoplasm (Fcyto) in cross-section images of cells using the line profile function of Image-Pro Plus software (Media Cybernetics). Briefly, at least five different lines were drawn across the cross-sectional image of each cell and the average Inuc and ICyto values were calculated along the lines. Typically, more than ten cell images were analyzed for each data set to determine the average and SD values.
For the molecule B1, the “nuclear transport after TGF-β stimulation” value is recorded as “did not show nuclear transport”.
Still for that read-out and setting: to B2 belongs “did not show nuclear transport”; to B3, “did not show nuclear transport”; to B4, “excessively transported to the nucleus”.
The same measure, in the same setting: to B5 belongs “did not show nuclear transport”.
On to B6, for which the “nuclear transport after TGF-β stimulation” value is “moved from the cytoplasm to the nucleus”.
